First the molecules themselves.
B1: FGF18_Fab tanezumab (HL) (other)
heavy: EENVDFRIHVENQTRARDDVSRKQLRLYQLYSRTSGKHIQVLGRRISARGEDGDKYAQLLVETDTFGSQVRIKGKETEFYLCMNRKGKLVGKPDGTSKECVFIEKVLENNYTALMSAKYSGWYVGFTKKGRPRKGPKTRENQQDVHFMKRYPKGQPELQKPFKYTTVTKGGGGSGGGGSQVQLQESGPGLVKPSETLSLTCTVSGFSLIGYDLNWIRQPPGKGLEWIGIIWGDGTTDYNSAVKSRVTISKDTSKNQFSLKLSSVTAADTAVYYCARGGYWYATSYYFDYWGQGTLVTVSSASTKGPSVFPLAPSSKSTSGGTAALGCLVKDYFPEPVTVSWNSGALTSGVHTFPAVLQSSGLYSLSSVVTVPSSSLGTQTYICNVNHKPSNTKVDKKVEPKSC
light: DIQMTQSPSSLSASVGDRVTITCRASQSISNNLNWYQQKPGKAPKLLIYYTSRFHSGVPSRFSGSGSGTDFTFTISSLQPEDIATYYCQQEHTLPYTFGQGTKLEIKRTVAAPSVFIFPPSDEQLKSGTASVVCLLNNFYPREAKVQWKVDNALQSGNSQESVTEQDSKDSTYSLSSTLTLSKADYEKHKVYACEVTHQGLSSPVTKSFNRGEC
B2: FGF18 SEED tanezumab (MBE626) (other)
chain: EENVDFRIHVENQTRARDDVSRKQLRLYQLYSRTSGKHIQVLGRRISARGEDGDKYAQLLVETDTFGSQVRIKGKETEFYLCMNRKGKLVGKPDGTSKECVFIEKVLENNYTALMSAKYSGWYVGFTKKGRPRKGPKTRENQQDVHFMKRYPKGQPELQKPFKYTTVTKGGSGGSGSGSEPKSSDKTHTCPPCPAPEAAGGPSVFLFPPKPKDTLMISRTPEVTCVVVDVSHEDPEVKFNWYVDGVEVHNAKTKPREEQYNSTYRVVSVLTVLHQDWLNGKEYKCKVSNKALPAPIEKTISKAKGQPFRPEVHLLPPSREEMTKNQVSLTCLARGFYPKDIAVEWESNGQPENNYKTTPSRQEPSQGTTTFAVTSKLTVDKSRWQQGNVFSCSVMHEALHNHYTQKTISLSPGK
heavy: QVQLQESGPGLVKPSETLSLTCTVSGFSLIGYDLNWIRQPPGKGLEWIGIIWGDGTTDYNSAVKSRVTISKDTSKNQFSLKLSSVTAADTAVYYCARGGYWYATSYYFDYWGQGTLVTVSSASTKGPSVFPLAPSSKSTSGGTAALGCLVKDYFPEPVTVSWNSGALTSGVHTFPAVLQSSGLYSLSSVVTVPSSSLGTQTYICNVNHKPSNTKVDKKVEPKSCDKTHTCPPCPAPEAAGGPSVFLFPPKPKDTLMISRTPEVTCVVVDVSHEDPEVKFNWYVDGVEVHNAKTKPREEQYNSTYRVVSVLTVLHQDWLNGKEYKCKVSNKALPAPIEKTISKAKGQPREPQVYTLPPPSEELALNELVTLTCLVKGFYPSDIAVEWLQGSQELPREKYLTWAPVLDSDGSFFLYSILRVAAEDWKKGDTFSCSVMHEALHNRFTQKSLDRSPGK
light: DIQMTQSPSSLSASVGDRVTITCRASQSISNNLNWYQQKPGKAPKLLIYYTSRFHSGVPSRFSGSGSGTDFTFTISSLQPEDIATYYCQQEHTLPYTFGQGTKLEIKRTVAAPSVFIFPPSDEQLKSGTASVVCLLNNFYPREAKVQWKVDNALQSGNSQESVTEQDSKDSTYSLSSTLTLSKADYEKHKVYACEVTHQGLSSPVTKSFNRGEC
B3: FGF18_Fab fulranumab (LH) (other)
light: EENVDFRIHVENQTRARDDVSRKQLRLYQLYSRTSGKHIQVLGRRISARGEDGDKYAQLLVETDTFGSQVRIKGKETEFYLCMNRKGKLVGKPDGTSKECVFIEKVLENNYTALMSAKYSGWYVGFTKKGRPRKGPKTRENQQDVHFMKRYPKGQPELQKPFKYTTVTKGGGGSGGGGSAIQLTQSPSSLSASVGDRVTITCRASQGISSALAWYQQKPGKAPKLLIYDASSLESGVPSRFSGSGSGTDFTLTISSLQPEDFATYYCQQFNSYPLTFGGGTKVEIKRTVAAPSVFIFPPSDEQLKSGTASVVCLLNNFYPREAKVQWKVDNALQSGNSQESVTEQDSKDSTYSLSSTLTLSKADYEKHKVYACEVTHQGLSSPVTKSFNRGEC
heavy: EVQLVESGGGLVQPGGSLRLSCAASGFTLRSYSMNWVRQAPGKGLEWVSYISRSSHTIFYADSVKGRFTISRDNAKNSLYLQMDSLRDEDTAMYYCARVYSSGWHVSDYFDYWGQGILVTVSSASTKGPSVFPLAPSSKSTSGGTAALGCLVKDYFPEPVTVSWNSGALTSGVHTFPAVLQSSGLYSLSSVVTVPSSSLGTQTYICNVNHKPSNTKVDKKVEPKSC
B4: FGF18_Fab tanezumab (LH) (other)
light: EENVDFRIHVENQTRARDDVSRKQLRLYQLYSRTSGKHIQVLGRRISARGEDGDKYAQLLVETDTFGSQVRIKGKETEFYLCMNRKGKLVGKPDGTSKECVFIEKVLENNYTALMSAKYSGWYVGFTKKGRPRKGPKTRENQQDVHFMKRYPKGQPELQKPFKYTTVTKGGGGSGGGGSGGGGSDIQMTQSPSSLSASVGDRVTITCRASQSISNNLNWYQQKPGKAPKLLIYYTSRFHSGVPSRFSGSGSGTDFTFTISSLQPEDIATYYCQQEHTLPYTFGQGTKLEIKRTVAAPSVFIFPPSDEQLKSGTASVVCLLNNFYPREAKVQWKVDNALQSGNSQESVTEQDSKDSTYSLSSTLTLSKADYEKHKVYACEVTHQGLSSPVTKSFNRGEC
heavy: QVQLQESGPGLVKPSETLSLTCTVSGFSLIGYDLNWIRQPPGKGLEWIGIIWGDGTTDYNSAVKSRVTISKDTSKNQFSLKLSSVTAADTAVYYCARGGYWYATSYYFDYWGQGTLVTVSSASTKGPSVFPLAPSSKSTSGGTAALGCLVKDYFPEPVTVSWNSGALTSGVHTFPAVLQSSGLYSLSSVVTVPSSSLGTQTYICNVNHKPSNTKVDKKVEPKSC
B5: FGF18_Fab fasinumab (LH) (other)
light: EENVDFRIHVENQTRARDDVSRKQLRLYQLYSRTSGKHIQVLGRRISARGEDGDKYAQLLVETDTFGSQVRIKGKETEFYLCMNRKGKLVGKPDGTSKECVFIEKVLENNYTALMSAKYSGWYVGFTKKGRPRKGPKTRENQQDVHFMKRYPKGQPELQKPFKYTTVTKGGGGSGGGGSDIQMTQSPSSLSASAGDRVTITCRASQAIRNDLGWYQQKPGKAPKRLIYAAFNLQSGVPSRFSGSGSGTEFTLTISSLQPEDLASYYCQQYNRYPWTFGQGTKVEIKRTVAAPSVFIFPPSDEQLKSGTASVVCLLNNFYPREAKVQWKVDNALQSGNSQESVTEQDSKDSTYSLSSTLTLSKADYEKHKVYACEVTHQGLSSPVTKSFNRGEC
heavy: QVQLVQSGAEVKKPGASVKVSCKVSGFTLTELSIHWVRQAPGKGLEWMGGFDPEDGETIYAQKFQGRVTMTEDTSTDTAYMELTSLRSEDTAVYYCSTIFGVVTNFDNWGQGTLVTVSSASTKGPSVFPLAPSSKSTSGGTAALGCLVKDYFPEPVTVSWNSGALTSGVHTFPAVLQSSGLYSLSSVVTVPSSSLGTQTYICNVNHKPSNTKVDKKVEPKSC
B6: FGF18_Fab fasinumab (HL) (other)
heavy: EENVDFRIHVENQTRARDDVSRKQLRLYQLYSRTSGKHIQVLGRRISARGEDGDKYAQLLVETDTFGSQVRIKGKETEFYLCMNRKGKLVGKPDGTSKECVFIEKVLENNYTALMSAKYSGWYVGFTKKGRPRKGPKTRENQQDVHFMKRYPKGQPELQKPFKYTTVTKGGGGSGGGGSQVQLVQSGAEVKKPGASVKVSCKVSGFTLTELSIHWVRQAPGKGLEWMGGFDPEDGETIYAQKFQGRVTMTEDTSTDTAYMELTSLRSEDTAVYYCSTIFGVVTNFDNWGQGTLVTVSSASTKGPSVFPLAPSSKSTSGGTAALGCLVKDYFPEPVTVSWNSGALTSGVHTFPAVLQSSGLYSLSSVVTVPSSSLGTQTYICNVNHKPSNTKVDKKVEPKSC
light: DIQMTQSPSSLSASAGDRVTITCRASQAIRNDLGWYQQKPGKAPKRLIYAAFNLQSGVPSRFSGSGSGTEFTLTISSLQPEDLASYYCQQYNRYPWTFGQGTKVEIKRTVAAPSVFIFPPSDEQLKSGTASVVCLLNNFYPREAKVQWKVDNALQSGNSQESVTEQDSKDSTYSLSSTLTLSKADYEKHKVYACEVTHQGLSSPVTKSFNRGEC
B7: FGF18_Fab fulranumab (HL) (other)
heavy: EENVDFRIHVENQTRARDDVSRKQLRLYQLYSRTSGKHIQVLGRRISARGEDGDKYAQLLVETDTFGSQVRIKGKETEFYLCMNRKGKLVGKPDGTSKECVFIEKVLENNYTALMSAKYSGWYVGFTKKGRPRKGPKTRENQQDVHFMKRYPKGQPELQKPFKYTTVTKGGGGSGGGGSEVQLVESGGGLVQPGGSLRLSCAASGFTLRSYSMNWVRQAPGKGLEWVSYISRSSHTIFYADSVKGRFTISRDNAKNSLYLQMDSLRDEDTAMYYCARVYSSGWHVSDYFDYWGQGILVTVSSASTKGPSVFPLAPSSKSTSGGTAALGCLVKDYFPEPVTVSWNSGALTSGVHTFPAVLQSSGLYSLSSVVTVPSSSLGTQTYICNVNHKPSNTKVDKKVEPKSC
light: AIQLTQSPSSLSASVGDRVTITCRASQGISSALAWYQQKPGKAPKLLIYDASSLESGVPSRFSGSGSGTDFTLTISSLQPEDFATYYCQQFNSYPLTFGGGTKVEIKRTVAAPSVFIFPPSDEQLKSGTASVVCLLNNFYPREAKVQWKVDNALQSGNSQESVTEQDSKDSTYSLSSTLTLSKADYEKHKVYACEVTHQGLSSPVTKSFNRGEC

Chain of NGF (P01138 122-241): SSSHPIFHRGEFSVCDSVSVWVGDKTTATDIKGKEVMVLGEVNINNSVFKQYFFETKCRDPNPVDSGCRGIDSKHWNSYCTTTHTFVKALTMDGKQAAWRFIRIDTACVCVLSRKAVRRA

The first assay concerns the target FGFR3. Nature of the assay: cell-based or functional assay.
Take B1: the “FGF18 EC50 (nM), BaF3/FGFR3 assay; construct from expiCHO-S” value came out at 0.05 nM.

With B2, the “FGF18 EC50 (nM), BaF3/FGFR3 assay; construct from expiCHO-S” value was determined as 0.05 nM.

On to B3, for which the “FGF18 EC50 (nM), BaF3/FGFR3 assay; construct from expiCHO-S” value turned out to be 0.07 nM.

B4: the “FGF18 EC50 (nM), BaF3/FGFR3 assay; construct from HEK293” value was found to be 0.21 nM and the “FGF18 EC50 (nM), BaF3/FGFR3 assay; construct from expiCHO-S” value turned out to be 0.08 nM.

In the case of B5, the “FGF18 EC50 (nM), BaF3/FGFR3 assay; construct from HEK293” value was 0.27 nM and the “FGF18 EC50 (nM), BaF3/FGFR3 assay; construct from expiCHO-S” value worked out at 0.1 nM.

With B6, the “FGF18 EC50 (nM), BaF3/FGFR3 assay; construct from expiCHO-S” value came out at 0.06 nM.

On to B7, for which the “FGF18 EC50 (nM), BaF3/FGFR3 assay; construct from expiCHO-S” value was 0.06 nM.

The next assay concerns the target NGF. Nature of the assay: cell-based or functional assay.
As for B1, the “anti-NGF IC50 (nM), U2OS TrkA_p75 assay; construct from expiCHO-S” value (“anti-NGF IC50 (nM) … from expiCHO-S” below) is 0.84 nM.

As to B2, the “anti-NGF IC50 (nM) … from expiCHO-S” value was found to be 0.44 nM.

Regarding B3, the “anti-NGF IC50 (nM) … from expiCHO-S” value amounted to 1.61 nM.

For B4, the “anti-NGF IC50 (nM), U2OS TrkA_p75 assay; construct from HEK293” value was 0.52 nM and the “anti-NGF IC50 (nM) … from expiCHO-S” value was 0.86 nM.

In the case of B5, the “anti-NGF IC50 (nM), U2OS TrkA_p75 assay; construct from HEK293” value stood at 0.54 nM and the “anti-NGF IC50 (nM) … from expiCHO-S” value was 1.56 nM.

On to B6, for which the “anti-NGF IC50 (nM) … from expiCHO-S” value was found to be 1.33 nM.

In the case of B7, the “anti-NGF IC50 (nM) … from expiCHO-S” value came out at 1.07 nM.

Source of the values: patent US20200299347A1 (Merck KGaA, published 2020).
